In patent publication US20230065153A1 (HIROSHIMA UNIVERSITY, published 2023):

How the values were obtained:
[1] = target: T1, human integrin α10 (human, UniProt O75578 23-1167); experiment: FACS on human integrin α10 introduced CHO cells
T1 construct: whole, on cells
T1 sequence (looked up): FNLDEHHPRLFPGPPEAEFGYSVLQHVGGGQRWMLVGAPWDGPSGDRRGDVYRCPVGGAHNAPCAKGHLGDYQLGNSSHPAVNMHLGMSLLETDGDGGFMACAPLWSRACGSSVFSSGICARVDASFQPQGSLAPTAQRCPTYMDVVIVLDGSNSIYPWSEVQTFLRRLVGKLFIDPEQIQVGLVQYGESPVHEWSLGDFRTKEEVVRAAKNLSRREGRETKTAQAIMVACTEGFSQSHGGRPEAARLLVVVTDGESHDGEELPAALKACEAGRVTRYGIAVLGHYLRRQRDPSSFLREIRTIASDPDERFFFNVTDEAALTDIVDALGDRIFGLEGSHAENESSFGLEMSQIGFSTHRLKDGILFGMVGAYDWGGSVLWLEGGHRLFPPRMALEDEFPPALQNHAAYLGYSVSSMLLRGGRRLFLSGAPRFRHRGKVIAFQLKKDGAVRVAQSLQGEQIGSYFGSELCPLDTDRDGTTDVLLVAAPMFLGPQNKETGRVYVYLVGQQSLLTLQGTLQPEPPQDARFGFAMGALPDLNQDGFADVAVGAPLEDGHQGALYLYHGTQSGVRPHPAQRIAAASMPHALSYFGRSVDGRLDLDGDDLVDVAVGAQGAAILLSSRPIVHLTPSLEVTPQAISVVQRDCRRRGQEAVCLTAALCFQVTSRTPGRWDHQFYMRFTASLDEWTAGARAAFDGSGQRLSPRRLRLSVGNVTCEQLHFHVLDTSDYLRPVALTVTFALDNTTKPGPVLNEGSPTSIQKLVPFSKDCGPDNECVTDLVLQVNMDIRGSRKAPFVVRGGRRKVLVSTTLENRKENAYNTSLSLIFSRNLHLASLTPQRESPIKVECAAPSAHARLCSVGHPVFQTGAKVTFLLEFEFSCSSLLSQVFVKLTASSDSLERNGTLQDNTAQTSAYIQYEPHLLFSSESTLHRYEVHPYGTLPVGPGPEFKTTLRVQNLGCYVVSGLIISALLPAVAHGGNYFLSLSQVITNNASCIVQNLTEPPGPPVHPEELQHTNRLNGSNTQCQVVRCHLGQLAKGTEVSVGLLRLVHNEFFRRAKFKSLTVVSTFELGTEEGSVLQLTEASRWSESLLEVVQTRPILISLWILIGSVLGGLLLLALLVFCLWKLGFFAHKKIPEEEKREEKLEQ
Experimental: (§1) Reactivity (specificity) with respect to α11 in the antibody which has been converted into IgG was analyzed based on presence or absence of reactivity with respect to other collagen binding integrins α1, α2, and α10. First, reactivity of the antibody with respect to the CHO cell and the human integrin α11 introduced CHO cell was analyzed by FACS. Subsequently, reactivity of the antibody with respect to a human colorectal carcinoma cell line (SW480 cell: cell line expressing endogenous α1 and α2) and a human integrin α10 introduced CHO cell was analyzed by FACS. The reaction conditions of FACS using the IgG antibody are as follows. That is, the antibody as a primary antibody was added to a cell at a concentration of 5 μg/ml to react with the cell on ice for 25 minutes. After washing, PE labeled anti-mouse IgG antibody as a secondary antibody was added to the cell at a concentration of 2 μg/ml to react with the cell on ice for 15 minutes. The subsequent FACS processes were carried out under the same conditions.

[2] = target: T2, integrin α1 (endogenous on human colorectal carcinoma SW480 cells) (human, UniProt P56199 29-1179); experiment: FACS on SW480 cells expressing endogenous α1 and α2
T2 construct: whole, on cells
T2 sequence (looked up): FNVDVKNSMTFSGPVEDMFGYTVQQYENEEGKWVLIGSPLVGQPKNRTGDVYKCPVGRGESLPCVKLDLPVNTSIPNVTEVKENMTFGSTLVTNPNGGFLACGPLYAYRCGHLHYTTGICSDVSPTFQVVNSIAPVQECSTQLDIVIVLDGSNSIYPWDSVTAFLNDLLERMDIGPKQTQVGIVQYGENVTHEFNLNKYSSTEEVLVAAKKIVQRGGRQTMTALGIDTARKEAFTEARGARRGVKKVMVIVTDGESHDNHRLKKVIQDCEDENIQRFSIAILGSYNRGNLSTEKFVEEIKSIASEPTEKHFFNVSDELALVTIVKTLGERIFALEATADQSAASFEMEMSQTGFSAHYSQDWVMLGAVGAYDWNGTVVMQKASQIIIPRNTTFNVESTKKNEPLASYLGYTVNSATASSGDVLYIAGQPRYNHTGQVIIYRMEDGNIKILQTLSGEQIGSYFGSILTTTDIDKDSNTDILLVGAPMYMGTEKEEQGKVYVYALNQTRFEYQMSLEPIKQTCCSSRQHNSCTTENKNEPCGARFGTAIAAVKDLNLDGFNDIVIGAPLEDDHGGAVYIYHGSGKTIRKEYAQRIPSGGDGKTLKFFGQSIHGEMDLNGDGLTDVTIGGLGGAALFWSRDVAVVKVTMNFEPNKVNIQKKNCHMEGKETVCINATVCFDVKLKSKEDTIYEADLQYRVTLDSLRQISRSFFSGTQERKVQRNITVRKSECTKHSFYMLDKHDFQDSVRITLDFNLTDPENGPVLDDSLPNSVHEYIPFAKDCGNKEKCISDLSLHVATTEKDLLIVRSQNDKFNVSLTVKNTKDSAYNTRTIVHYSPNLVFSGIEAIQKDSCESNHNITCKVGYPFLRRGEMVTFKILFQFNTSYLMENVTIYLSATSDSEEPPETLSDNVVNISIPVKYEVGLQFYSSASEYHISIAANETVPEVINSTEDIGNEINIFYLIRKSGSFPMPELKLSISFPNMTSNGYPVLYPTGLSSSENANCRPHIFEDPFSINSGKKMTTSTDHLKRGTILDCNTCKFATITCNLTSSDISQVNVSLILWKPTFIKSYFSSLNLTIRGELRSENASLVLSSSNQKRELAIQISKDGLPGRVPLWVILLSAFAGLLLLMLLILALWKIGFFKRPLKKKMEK
Experimental: as §1

[3] = target: T3, integrin α2 (endogenous on human colorectal carcinoma SW480 cells) (human, UniProt P17301 30-1181); experiment: as above
T3 construct: whole, on cells
T3 sequence (looked up): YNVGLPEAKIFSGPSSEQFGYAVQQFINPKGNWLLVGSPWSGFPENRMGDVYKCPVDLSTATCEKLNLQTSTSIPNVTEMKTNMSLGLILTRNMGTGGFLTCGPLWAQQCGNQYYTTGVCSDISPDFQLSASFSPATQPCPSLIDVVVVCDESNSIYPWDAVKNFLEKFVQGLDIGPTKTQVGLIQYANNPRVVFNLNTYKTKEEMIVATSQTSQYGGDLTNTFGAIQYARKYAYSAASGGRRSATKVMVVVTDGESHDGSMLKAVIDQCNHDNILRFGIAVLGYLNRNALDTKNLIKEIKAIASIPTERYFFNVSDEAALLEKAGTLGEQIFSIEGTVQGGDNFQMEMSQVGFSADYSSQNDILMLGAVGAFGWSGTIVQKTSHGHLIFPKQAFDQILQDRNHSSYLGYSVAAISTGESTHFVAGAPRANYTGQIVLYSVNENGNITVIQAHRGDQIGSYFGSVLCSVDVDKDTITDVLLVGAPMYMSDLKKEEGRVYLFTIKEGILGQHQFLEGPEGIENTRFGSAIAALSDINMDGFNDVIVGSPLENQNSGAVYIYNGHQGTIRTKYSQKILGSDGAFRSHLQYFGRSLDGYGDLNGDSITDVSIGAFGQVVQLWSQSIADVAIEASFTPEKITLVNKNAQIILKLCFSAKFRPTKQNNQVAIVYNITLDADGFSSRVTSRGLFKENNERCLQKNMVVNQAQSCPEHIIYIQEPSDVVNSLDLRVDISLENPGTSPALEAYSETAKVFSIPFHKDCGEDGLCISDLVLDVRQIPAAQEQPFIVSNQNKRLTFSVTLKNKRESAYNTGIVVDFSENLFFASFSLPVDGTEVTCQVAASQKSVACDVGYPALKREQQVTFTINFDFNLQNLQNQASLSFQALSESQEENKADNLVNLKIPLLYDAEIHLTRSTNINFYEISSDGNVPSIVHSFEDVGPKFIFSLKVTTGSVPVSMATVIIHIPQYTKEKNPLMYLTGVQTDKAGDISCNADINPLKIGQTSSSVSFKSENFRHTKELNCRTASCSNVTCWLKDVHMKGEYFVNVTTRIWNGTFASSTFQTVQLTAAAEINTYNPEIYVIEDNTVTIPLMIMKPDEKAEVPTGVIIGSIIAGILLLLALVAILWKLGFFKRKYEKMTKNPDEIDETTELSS
Experimental: as §1

Measured: binding result

B1: wild-type #33 IgG (anti-integrin α11 monoclonal antibody, chicken-mouse chimeric IgG1) (antibody, V domains shown)
VH: AVTLDESGGGLQTPGGALSLVCKGSGFTFSSYGMQWVRQAPGRGLEWVAGIDDDGSFTLYGAAVDGRATISRDNGQTTVRLQLSDLRAEDTATYFCAKGGYGYCWYGDAACIDAWGHGTEVIVSS
VL: AVTQPSSVSANPGETVKITCSGGSDSWYGWYQQKSPGSAPVTVIYSNNQRPSNIPSRFSGSTSGSTSTLTITGVQADDEAVYFCGSRDSSYDGIFGAGTTLTVLK
notes: Chicken VH linked to a mouse IgG1 constant region and chicken VL linked to a mouse Igκ region; His-tagged at the C-terminal; also called the antibody
no binding (tested: 5 µg/ml): all assays above
